Experimental data published in patent US20180163218.

Legend:
Experiment in all cases: cell_activity
[1] = test system: eZFN14 zinc finger nuclease (FokI); conditions: soybean F1, CsVMV promoter; complete excision 0.00%
[2] = test system: eZFN2 zinc finger nuclease (FokI); conditions: maize; two identical sites flanking aad-1 cassette; 23 of 621 plants
[3] = test system: eZFN4 zinc finger nuclease (FokI); conditions: soybean F1, AtUbi3 promoter; chimeric 4.43%; with CsVMV promoter 0.00% complete, 1.58% chimeric
[4] = test system: eZFN4-HF zinc finger nuclease (high fidelity FokI); conditions: soybean F1, AtUbi10 promoter; chimeric excision 10.68%

TGGTCATCCTCATCCTGTCTATGCCCGGGACAAGTG (double strand) [eZFN14 binding site]
activity (% chimeric excision) [1]: 2.82

AAGACTCCCGCCCATCTCTCTATGCCCGGGACAAGTG (double strand) [eZFN2 binding site]
activity (% F1 plants with aad-1 excised) [2]: 3.7

GCCTTTTGCAGTTTATCTCTATGCCCGGGACAAGTG (double strand) [eZFN4 binding site]
activity (% complete excision) [3]: 0.13 | activity (% complete excision) [4]: 1.23
